The text below walks through data of PMC8069351, “Characterization of Two Unique Cold-Active Lipases Derived from a Novel Deep-Sea Cold Seep Bacterium” (Microorganisms, 2021).

Substrate in the data set: CCCCCCCCCCCCCCCC(=O)Oc1ccc([N+](=O)[O-])cc1
Description: purified protein. It counts as biochemical, Pseudomonas sp. gcc21. Particulars: 50 mM Tris-HCl pH 8.0, 4 °C, substrate 0.2-1.2 mM, text b44 swaps the two lipases' Km.

B1: Lipase 2 (Pseudomonas sp. gcc21) (protein)
chain: MNSPLLKLSTLTLGLVFAAGAYAFNPGNPGGPSNPGGDQPVESGFPSVGNFEASGSFATTNASEGPSCTIYRPRTLGENDLKHPIILWGNGTGTSPSGYSALLNHWASHGFVVAAANTTNAGSGAEMLACLDYLAEQNGRGSGTYAGKLNLDAVGSSGHSQGGGGSIMAGQDSRITATAPFQPYTLGLGHRRASQSNQNGPMFLMTGSADTLASSEANGRPVFNNANVPVFWGELQGASHFVPAFNGGGYRGPSTAWYRYHLMGDQNAESTFYGADCKLCTSSEWKVQKKGIQ
As for B1, the Km (as a rule, the concentration of substrate that gives half-maximal velocity) was 20 µM; the kcat (commonly the maximal rate divided by the concentration of active sites) was found to be 2.7 s⁻¹; the kcat/Km (commonly the second-order rate constant that governs catalysis at low substrate concentration) worked out at 140000 M⁻¹ s⁻¹.
